Laboratory results reported in PMC5524640, “Evasion of immunosurveillance by genomic alterations of PPARγ/RXRα in bladder cancer” (Nature Communications, 2017).

How the values were obtained:
[1] = target: T1, His-TEV-RXRα-S427F (223-462) (Homo sapiens (Human), UniProt P19793); experiment: SPR (also analytical size exclusion chromatography); S427F mutant of RXRα; binding seen without added ligand
T1 chain: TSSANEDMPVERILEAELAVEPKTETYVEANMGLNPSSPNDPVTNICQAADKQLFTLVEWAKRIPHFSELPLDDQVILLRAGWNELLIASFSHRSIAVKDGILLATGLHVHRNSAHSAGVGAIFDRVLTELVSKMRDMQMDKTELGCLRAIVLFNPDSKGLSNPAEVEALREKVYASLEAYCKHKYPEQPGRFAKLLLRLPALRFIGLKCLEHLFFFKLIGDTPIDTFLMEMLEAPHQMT

[2] = target: T2, His-TEV-RXRα-WT (223-462) (Homo sapiens (Human), UniProt P19793); experiment: SPR; monomer fraction of RXRα WT used (apo tetramer is inactive)
T2 chain: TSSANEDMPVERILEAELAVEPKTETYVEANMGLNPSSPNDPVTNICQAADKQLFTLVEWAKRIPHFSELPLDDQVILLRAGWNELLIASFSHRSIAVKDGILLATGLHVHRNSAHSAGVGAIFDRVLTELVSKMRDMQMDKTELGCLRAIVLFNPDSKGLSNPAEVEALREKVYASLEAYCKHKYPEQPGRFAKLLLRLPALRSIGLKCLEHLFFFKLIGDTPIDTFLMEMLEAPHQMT

[3] = target: the molecule itself; experiment: SEC; 16/60 Sephacryl S-300 in 25 mM Tris-HCl pH 8.0, 100 mM NaCl, 10% glycerol, 1 mM TCEP; no exogenous ligand; tetramer and monomer peaks
[4] = target: T3, His-TEV-PPARγ (234-505) (human, UniProt P37231 234-505); experiment: SEC; analytical, 10/300 Superdex 200; equivalent molar volumes loaded; heterodimer formed by mixing the two proteins at a 1:1 molar ratio; no ligand; settings: both partners purified
T3 construct: The methods name no species for the bacterial construct; No tag cleavage is described for this preparation; also called PPARg; source: E. coli, purified (Ni-NTA, size exclusion chromatography)
T3 sequence (looked up): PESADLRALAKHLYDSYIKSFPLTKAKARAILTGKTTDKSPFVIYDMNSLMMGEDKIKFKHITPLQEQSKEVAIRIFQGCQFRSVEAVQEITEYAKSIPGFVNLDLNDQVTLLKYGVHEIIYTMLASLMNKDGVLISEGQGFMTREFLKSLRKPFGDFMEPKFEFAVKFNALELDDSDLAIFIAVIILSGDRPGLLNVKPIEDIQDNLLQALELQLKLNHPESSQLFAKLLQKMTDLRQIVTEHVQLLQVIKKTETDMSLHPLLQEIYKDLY

B1: His-TEV-PPARγ (234-505) (protein)
chain: PESADLRALAKHLYDSYIKSFPLTKAKARAILTGKTTDKSPFVIYDMNSLMMGEDKIKFKHITPLQEQSKEVAIRIFQGCQFRSVEAVQEITEYAKSIPGFVNLDLNDQVTLLKYGVHEIIYTMLASLMNKDGVLISEGQGFMTREFLKSLRKPFGDFMEPKFEFAVKFNALELDDSDLAIFIAVIILSGDRPGLLNVKPIEDIQDNLLQALELQLKLNHPESSQLFAKLLQKMTDLRQIVTEHVQLLQVIKKTETDMSLHPLLQEIYKDLY
binding result [1]: binds | binding result [2]: binds

B2: His-TEV-RXRα-WT (223-462) (domain or fragment, human, UniProt P19793 223-462, looked up)
chain: TSSANEDMPVERILEAELAVEPKTETYVEANMGLNPSSPNDPVTNICQAADKQLFTLVEWAKRIPHFSELPLDDQVILLRAGWNELLIASFSHRSIAVKDGILLATGLHVHRNSAHSAGVGAIFDRVLTELVSKMRDMQMDKTELGCLRAIVLFNPDSKGLSNPAEVEALREKVYASLEAYCKHKYPEQPGRFAKLLLRLPALRSIGLKCLEHLFFFKLIGDTPIDTFLMEMLEAPHQMT
stoichiometry N [3]: 4

B3: His-TEV-RXRα-S427F (223-462) (domain or fragment, human, UniProt P19793 223-462, looked up)
chain: TSSANEDMPVERILEAELAVEPKTETYVEANMGLNPSSPNDPVTNICQAADKQLFTLVEWAKRIPHFSELPLDDQVILLRAGWNELLIASFSHRSIAVKDGILLATGLHVHRNSAHSAGVGAIFDRVLTELVSKMRDMQMDKTELGCLRAIVLFNPDSKGLSNPAEVEALREKVYASLEAYCKHKYPEQPGRFAKLLLRLPALRFIGLKCLEHLFFFKLIGDTPIDTFLMEMLEAPHQMT
notes: S427F is a recurrent mutation found in patients' tumours; No tag cleavage is described for this preparation; also called the mutant; source: E. coli, purified (Ni-NTA, size exclusion chromatography)
binding result [4]: binds
